Test [1] concerns the target human cMet on cells (HT29 human colorectal cancer cells; S114 cells; human colon tissue and organoids) (human) (UniProt P08581). Put plainly: confocal microscopy, HT29 versus SW480 cells.
The target is the same in test [2]. Put plainly: confocal microscopy, S114 versus NIH3T3 cells.
Test [3] shares this target. Kind of test: confocal microscopy, HT29 cells with control or cMet siRNA.
The target of test [4] is T1, human cMet on cells (HT29 human colorectal cancer cells; S114 cells; human colon tissue and organoids) (human, UniProt P08581 25-1390).
T1 construct: whole, on cells; also called mesenchymal-epithelial transition factor
Kind of test: confocal microscopy, S114 cells, reference TLQ*-Cy5.5. The text has this:
(§1) FIG. 11. Peptide validation with mouse cells in vitro. […] Two-way ANOVA models were fit with terms for 6 conditions and 6 replicate slides on log-transformed data. Measurements were an average of 5 randomly chosen cells on 6 slides for each condition. […] An ANOVA model was fit to log-transformed data with terms for 6 conditions. There were 6 replicate slides per condition and 10 cells measured per slide.
(§2) HT29, SW480, S114 and NIH3T3 cells were inoculated in 12-well cell culture plates with circle glass coverslips to about 80% confluence. The cells were blocked with 1×PBS plus 2% BSA for 1 hour at 4° C., then were incubated with 5 μM peptides for 10 min at RT in the dark, washed thrice, and fixed with 4% PFA for 5 min, washed with 1×PBS, then mounted on glass slides with ProLong Gold reagent containing DAPI (Invitrogen, Waltham, Mass.).

For test [5], the target named is T1, human cMet on cells (HT29 human …). Put plainly: confocal microscopy, HT29 versus SW480 cells, 5 µM peptide. The method, then: FIG. 10. Peptide validation with human colorectal cancer cells in vitro. […] Two-way ANOVA models were fit with terms for 6 conditions and 6 replicate slides on log-transformed data. Measurements were an average of 5 randomly chosen cells on 6 slides for each condition.
(§3) HT29, SW480, S114 and NIH3T3 cells were inoculated in 12-well cell culture plates with circle glass coverslips to about 80% confluence. The cells were blocked with 1×PBS plus 2% BSA for 1 hour at 4° C., then were incubated with 5 μM peptides for 10 min at RT in the dark, washed thrice, and fixed with 4% PFA for 5 min, washed with 1×PBS, then mounted on glass slides with ProLong Gold reagent containing DAPI (Invitrogen, Waltham, Mass.). As positive control, after blocking with 2% BSA for 1 hour at 4° C., A 1:3000 dilution of primary monoclonal rabbit anti-cMet antibody (Cell Signaling Technology, #8198) was incubated with cells overnight at 4° C. […] Confocal fluorescence images were collected using a 63× oil-immersion objective (Leica SP5 Inverted 2-Photon FLIM Confocal). Fluorescence intensities from five cells in two independent images were quantified using custom Matlab (Mathworks) software.

The target is the same in test [6]. Kind of test: confocal microscopy, S114 versus NIH3T3 cells, 5 µM peptide.
Text: as §1, §2

For test [7], the target named is T2, mouse cMet on colonocytes of CPC;Apc mouse colon (mouse, UniProt P16056 25-1379).
T2 construct: whole, on cells; Target in tissue staining; also called cMet (mouse colon adenoma / dysplasia)
Put plainly: ex vivo NIR fluorescence imaging of excised CPC;Apc mouse colon. The method, then:
After imaging was completed, the mice were euthanized. The colon was resected and divided longitudinally, the colon was excised, flushed with PBS, and opened longitudinally for imaging with the NIR fluorescence imaging system (Pearl®, LI-COR Biosciences). Images were collected with […] resolution using λex=685 nm and λem=720 nm. Images were analyzed with custom software (Image Studio, Li-Cor Biosciences). The normal colon region with an equal area adjacent to the polyps was used to measure background. Prism software (v6.02, GraphPad) was used to plot data.
After imaging was completed, the CPC;Apc mice were euthanized, and the colon was excised and divided longitudinally to expose the mucosal surface for collection of macroscopic white light and fluorescence images, FIGS. 5 L,M and 13A, B. The polyp locations co-localized on white light and fluorescence images, FIG. 13C. […] Immunohistochemistry was performed with a known antibody to validate increased expression of cMet in mouse dysplasia, FIG. 13E, by comparison with normal colonic mucosa, FIG. 13F.

Test [8] addresses T1, human cMet on cells (HT29 human …). Kind of test: confocal microscopy, HT29 cells with control or cMet siRNA, 5 µM peptide.
Text: FIG. 2. In vitro validation with cMet knockdown. […] Fluorescence intensities for D) peptide and E) antibody were reduced with HT29 knockdown cells transfected with sicMet-targeting siRNA. […] A two-way ANOVA model was fit with terms for 6 conditions and 6 replicate slides on log-transformed data. Measurements were an average of 5 randomly chosen cells on 6 slides for each condition.
as §3

For test [9] the target is unchanged. Put plainly: flow cytometry, QQT*-Cy5.5 at 0-200 nmol/L on HT29 cells, 1 hour at 4 °C. The method, then:
We assessed the binding affinity of QQT*-Cy5.5 to HT29 cells by measuring the apparent dissociation constant. HT29 cells were blocked with 0.5% BSA, and then approximately 10⁵ cells were incubated with QQT*-Cy5.5 at concentrations of 0, 10, 25, 50, 75, 100, 125, 150, or 200 nmol/L for 1 hour at 4° C. Cells then were washed 3 times with 1×PBS containing 0.5% BSA to remove unbound peptides before analysis with flow cytometry (FACS Canto; BD Biosciences, San Jose, Calif.). Sample means were used to calculate the equilibrium dissociation constant KD using nonlinear regression analysis with Origin 6.1 data analysis software (OriginLab, Northampton, Mass.). […] I₀ and Iₘₐₓ are the initial and maximum fluorescence intensities, corresponding to no peptide and peptide saturation, respectively, and [X] represents the concentration of the bound peptide.³⁴
Specific binding of QQT*-Cy5.5 to cMet was confirmed by adding unlabeled QQT* to compete for binding. […] An apparent dissociation constant of kd=57 nM was measured for binding by QQT*-Cy5.5 to HT29 cells using flow cytometry, FIG. 3C, and an apparent association time constant of k=0.62 min⁻¹ (1.6 min) was measured for the same cells, supporting rapid binding with topical administration, FIG. 3D.
In general terms: A flow cytometer gives signals particle by particle.

Primed or numbered codes have the meaning given here. Ends that are not written are not given here. Cy5.5 = cyanine fluorophore coupled as NHS ester to the lysine side chain; Cy5.5″ = fluorophore Cy5.5, coupled as NHS ester to Lys side chain

T1 sequence (P08581 25-1390): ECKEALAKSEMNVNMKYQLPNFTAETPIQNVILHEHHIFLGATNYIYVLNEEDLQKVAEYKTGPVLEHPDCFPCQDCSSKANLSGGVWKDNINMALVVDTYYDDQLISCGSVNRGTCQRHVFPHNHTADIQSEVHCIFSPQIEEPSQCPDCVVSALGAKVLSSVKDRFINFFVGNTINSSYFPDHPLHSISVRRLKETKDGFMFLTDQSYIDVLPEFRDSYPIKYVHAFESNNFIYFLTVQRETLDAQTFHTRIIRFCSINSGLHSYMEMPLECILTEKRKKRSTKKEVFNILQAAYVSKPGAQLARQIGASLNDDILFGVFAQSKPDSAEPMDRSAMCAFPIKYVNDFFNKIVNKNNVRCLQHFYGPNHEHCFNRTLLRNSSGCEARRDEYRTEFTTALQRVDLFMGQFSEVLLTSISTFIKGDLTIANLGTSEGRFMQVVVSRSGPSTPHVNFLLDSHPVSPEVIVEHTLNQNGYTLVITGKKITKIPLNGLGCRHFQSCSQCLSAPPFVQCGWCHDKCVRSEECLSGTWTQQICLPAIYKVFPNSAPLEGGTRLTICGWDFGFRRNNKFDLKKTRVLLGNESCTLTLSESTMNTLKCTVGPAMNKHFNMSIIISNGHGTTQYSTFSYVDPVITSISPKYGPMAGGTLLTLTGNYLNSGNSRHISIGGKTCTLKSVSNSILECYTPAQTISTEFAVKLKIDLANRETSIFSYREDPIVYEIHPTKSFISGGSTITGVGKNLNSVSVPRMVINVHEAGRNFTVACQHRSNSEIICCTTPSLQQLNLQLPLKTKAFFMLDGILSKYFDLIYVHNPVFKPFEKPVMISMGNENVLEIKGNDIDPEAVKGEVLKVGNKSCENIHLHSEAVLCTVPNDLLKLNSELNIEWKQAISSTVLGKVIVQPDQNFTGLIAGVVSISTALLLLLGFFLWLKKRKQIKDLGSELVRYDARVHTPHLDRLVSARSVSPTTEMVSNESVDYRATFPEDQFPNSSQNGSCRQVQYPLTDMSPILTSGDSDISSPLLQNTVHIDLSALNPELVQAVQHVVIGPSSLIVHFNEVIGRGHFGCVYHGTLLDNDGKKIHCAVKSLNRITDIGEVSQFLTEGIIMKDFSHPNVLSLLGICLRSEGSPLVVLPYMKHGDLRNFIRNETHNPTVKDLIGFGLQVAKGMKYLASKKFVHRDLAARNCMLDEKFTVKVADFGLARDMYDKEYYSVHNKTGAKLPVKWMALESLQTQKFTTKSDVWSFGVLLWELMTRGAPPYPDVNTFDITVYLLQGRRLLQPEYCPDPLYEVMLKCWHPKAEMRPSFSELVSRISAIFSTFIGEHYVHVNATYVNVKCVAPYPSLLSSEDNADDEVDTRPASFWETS
human cMet on cells (HT29 human colorectal cancer cells; S114 cells; human colon tissue and organoids) (human), sequence (P08581 25-1390): as above
T2 sequence (P16056 25-1379): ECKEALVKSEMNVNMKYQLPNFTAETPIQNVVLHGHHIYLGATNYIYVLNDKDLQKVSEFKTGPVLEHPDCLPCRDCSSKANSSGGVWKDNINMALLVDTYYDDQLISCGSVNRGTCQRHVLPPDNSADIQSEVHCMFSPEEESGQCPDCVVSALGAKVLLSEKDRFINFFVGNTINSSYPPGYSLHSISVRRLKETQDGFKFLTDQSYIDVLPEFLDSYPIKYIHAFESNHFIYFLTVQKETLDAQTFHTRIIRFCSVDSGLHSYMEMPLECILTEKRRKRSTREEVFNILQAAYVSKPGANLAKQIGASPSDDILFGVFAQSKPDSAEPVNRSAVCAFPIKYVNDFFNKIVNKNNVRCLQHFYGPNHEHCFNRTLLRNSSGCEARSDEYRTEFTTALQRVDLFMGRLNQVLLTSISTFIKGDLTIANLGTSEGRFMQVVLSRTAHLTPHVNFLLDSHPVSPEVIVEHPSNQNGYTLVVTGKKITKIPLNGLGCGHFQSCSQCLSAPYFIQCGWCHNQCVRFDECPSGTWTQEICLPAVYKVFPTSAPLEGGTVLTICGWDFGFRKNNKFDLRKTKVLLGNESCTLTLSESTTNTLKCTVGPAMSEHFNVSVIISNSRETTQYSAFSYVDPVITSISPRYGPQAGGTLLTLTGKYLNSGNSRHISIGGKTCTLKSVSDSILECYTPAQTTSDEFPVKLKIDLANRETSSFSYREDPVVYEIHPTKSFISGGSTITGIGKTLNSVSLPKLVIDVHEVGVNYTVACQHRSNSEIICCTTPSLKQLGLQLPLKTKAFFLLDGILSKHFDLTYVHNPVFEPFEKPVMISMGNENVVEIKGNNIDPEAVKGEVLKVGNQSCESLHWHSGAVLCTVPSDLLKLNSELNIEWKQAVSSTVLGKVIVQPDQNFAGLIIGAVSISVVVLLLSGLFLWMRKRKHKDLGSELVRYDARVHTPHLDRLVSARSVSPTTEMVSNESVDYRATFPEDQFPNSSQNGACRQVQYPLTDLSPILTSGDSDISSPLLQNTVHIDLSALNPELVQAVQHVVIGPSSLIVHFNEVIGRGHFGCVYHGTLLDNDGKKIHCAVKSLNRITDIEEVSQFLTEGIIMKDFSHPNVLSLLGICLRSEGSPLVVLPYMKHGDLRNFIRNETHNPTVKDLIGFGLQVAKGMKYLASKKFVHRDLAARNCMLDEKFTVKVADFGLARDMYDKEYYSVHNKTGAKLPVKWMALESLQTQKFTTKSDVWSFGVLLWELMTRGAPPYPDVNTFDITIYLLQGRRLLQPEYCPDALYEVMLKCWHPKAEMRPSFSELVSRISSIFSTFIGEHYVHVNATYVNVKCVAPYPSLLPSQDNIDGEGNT

For the molecule “primary monoclonal rabbit anti-cMet antibody (Cell Signaling Technology, #8198) detected with AF488-labeled secondary antibody”, the fold change of mean intensity, HT29 (cMet+) versus SW480 (cMet-) cells in test [1] stood at 4.3 fold. In addition, the fold change of mean intensity, S114 (cMet+) versus NIH3T3 (cMet-) cells in test [2] came out at 6.7 fold. Besides, in [3], the fold reduction of fluorescence intensity with knockdown of cMet (siCL versus sicMet HT29 cells) stood at 4.1 fold.

B1: QQT*-Cy5.5 (peptide QQTNWSL linked at its C-terminus through a GGGSK linker to the fluorophore Cy5.5) (peptide)
peptide: QQTNWSLGGGSK(Cy5.5)-NH2
notes: Linear monomer made by Fmoc solid-phase synthesis; m/z 1827.67; also called target peptide
For orientation: Kd means the equilibrium constant for the complex coming apart. High values mean weaker binding, low ones tighter binding. Regarding B1, the “fold fluorescence intensity versus TLQ*-Cy5.5” value in test [4] was 7 fold. Besides, the “fold change of mean intensity, HT29 (cMet+) versus SW480 (cMet-) cells” value in test [5] is 2.1 fold. The “fold change of mean intensity, S114 (cMet+) versus NIH3T3 (cMet-) cells” value in [6] was 2.4 fold. Besides, the binding result in [7] was “binds”. The “fold reduction of fluorescence intensity with knockdown of cMet (siCL versus sicMet HT29 cells)” value in test [8] turned out to be 2.9 fold. In test [9], this molecule came in with a dissociation constant Kd of 57 nM.

B2: TLQ*-Cy5.5 (scrambled control peptide TLQWNQS linked through a GGGSK linker to Cy5.5) (peptide)
peptide: TLQWNQSGGGSK(Cy5.5″)-NH2
notes: Scrambled control of QQT*-Cy5.5; also called TQL*-Cy5.5
Take B2: the “fold change of mean intensity, HT29 (cMet+) versus SW480 (cMet-) cells” value in test [5] is 0.85 fold. Moreover, the “fold change of mean intensity, S114 (cMet+) versus NIH3T3 (cMet-) cells” value in test [6] stood at 0.72 fold. In [8], the “fold change of fluorescence intensity with knockdown of cMet (siCL versus sicMet HT29 cells)” value was 0.96 fold.

These data come from patent US20220193271A1 (REGENTS OF THE UNIVERSITY OF MICHIGAN, published 2022).
